Target: BAK (UniProt Q16611)
Assay: biotinylated BH3 peptide pull-down from lysate
Settings: reference: wild type, okadaic acid then UV; sites S117

Substance: BAK (from UniProt Q16611) S117A, okadaic acid then UV
- binding against the reference: gained
